Source: article PMC3017872

Experiments:
[1] = biological target: Fcε receptors expressed on the surface of U937 monocytic cells (human (endogenous in U937)); test: flow cytometry on cells
[2] = biological target: recombinant IgE receptor FcεRI alpha (sFcεRIα) (UniProt P12319); test: SPR
UniProt P12319, sequence (P12319 26-205): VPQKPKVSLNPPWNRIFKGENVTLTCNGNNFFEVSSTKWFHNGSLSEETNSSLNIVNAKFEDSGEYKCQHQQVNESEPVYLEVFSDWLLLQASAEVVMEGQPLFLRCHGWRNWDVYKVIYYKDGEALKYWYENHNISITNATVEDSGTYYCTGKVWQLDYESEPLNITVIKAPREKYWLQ

Substance | percent of cells bound [1] [%] | koff [2] [s⁻¹] | kon [2] [M⁻¹ s⁻¹]
chimaeric MOv18 IgE antibody against the ovarian cancer antigen FBP | 60.6 |  | 
chimaeric antibody NIP IgE |  | 2.6e-05 | 230000
